Columns and labels:
[1] = test system: T1, SAN8-rBraR (unphosphorylated) D96V (Staphylococcus aureus SAN8 (nisin A-resistant mutant of MW2)), ORF:7b46c191; experiment: EMSA; conditions: EMSA: 5 ng DIG-labeled DNA, rBraR (given as 50 mM) in DIG Gel Shift Kit 2nd Generation (Roche) buffer, 6% native PAGE; binding temperature and pH not stated …
T1 sequence: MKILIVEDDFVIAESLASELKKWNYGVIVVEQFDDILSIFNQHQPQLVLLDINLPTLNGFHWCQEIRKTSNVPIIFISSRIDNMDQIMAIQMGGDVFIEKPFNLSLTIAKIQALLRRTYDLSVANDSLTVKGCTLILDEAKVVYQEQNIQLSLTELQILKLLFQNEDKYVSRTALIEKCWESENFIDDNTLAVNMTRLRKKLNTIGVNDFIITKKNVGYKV

[2] = test system: T1, SAN8-rBraR (unphosphorylated) D96V (Staphylococcus aureus SAN8 (nisin A-resistant mutant of MW2)), ORF:7b46c191; experiment: competition; conditions: EMSA: 5 ng DIG-labeled DNA, rBraR (given as 50 mM) in DIG Gel Shift Kit 2nd Generation (Roche) buffer, 6% native PAGE; binding temperature and pH not stated …

ATCACTTAGAAAGCACCATTGCTTTTGTCTAATATGTACGATGAATCTGTATCCTCACTCAAAAATCTACTACGTAGCGATAGCTTTCAACTCTGTAAGGTTCAAACATTGAATTGTAAGTTTAGATAAAGGCTACTACTCCAAACATTATTTAAAATGAAATTAAATACAAAAGGAGTGAGACTATGACAATATTATCAGTGCAACATGTTTCAAAAACATACGG (double strand) [vraDE-F1]
binding [1]: binds | binding [2]: binds

From PMC6854852
